Experimental findings from publication PMC5497066, “GroEL actively stimulates folding of the endogenous substrate protein PepQ” (Nature Communications, 2017) are described below.

For experiment [1], the target named is single-ring truncation mutant, SRΔ526 (E. coli). Put plainly: cell-based or functional assay.
For experiment [2], the target named is T1, wild-type GroEL tetradecamer (E. coli, UniProt P0A6F5 1-548).
T1 construct: GroEL (Hsp60 chaperonin), E. coli, homo-oligomer of 14 subunits of 57 kDa in two seven-membered rings; also called WT; full-length GroEL; source: E. coli BL21, purified (anion exchange, ammonium sulfate precipitation, Affi Blue Gel); copies: 14
Put plainly: cryo-EM structure; acid-urea denatured PepQ (7 μM final) titrated into GroEL or Δ526 (8 μM tetradecamers) in TKM buffer, no nucleotide, room temperature 5 min; asymmetric 3D classification and refinement. The note with it: both partners purified.

The target in experiment [3] is T2, asymmetric wild-type GroEL-GroES-ADP complex (E. coli, UniProt P0A6F5 1-548; P0A6F9 1-97).
T2 construct: GroEL, E. coli, wild type; GroES, ring-shaped co-chaperonin, E. coli; GroES caps one ring; also called GroEL-GroES-ADP bullets; source: GroEL from E. coli BL21 and GroES from E. coli BL21(DE3), each purified; complex formed beforehand with ADP; copies: 14 +
Put plainly: protease protection (encapsulation); denatured PepQ-24F (100 nM) bound to wild-type or Δ526 GroEL-GroES-ADP bullets (200 nM) or full-length or Δ526 single-ring GroEL (300 nM) with GroES (600 nM); single turnover with ATP (2 mM), quenched after 10 s; unencapsulated PepQ digested with Proteinase K; SDS-PAGE, fluorescein scan. The note with it: both partners purified.

In experiment [4] the target is T1, wild-type GroEL tetradecamer. Nature of the experiment: fluorescence correlation spectroscopy; acid-urea denatured PepQ-24TMR (2 nM) with GroEL (1 μM) in TKM buffer (50 mM Tris-HCl, pH 7.4, 50 mM KOAc, 10 mM Mg(OAc)2, 2 mM DTT); shift in diffusion time. The note with it: both partners purified.

B1: wild type E. coli PepQ (enzyme, UniProt P21165 1-443, looked up)
chain: MESLASLYKNHIATLQERTRDALARFKLDALLIHSGELFNVFLDDHPYPFKVNPQFKAWVPVTQVPNCWLLVDGVNKPKLWFYLPVDYWHNVEPLPTSFWTEDVEVIALPKADGIGSLLPAARGNIGYIGPVPERALQLGIEASNINPKGVIDYLHYYRSFKTEYELACMREAQKMAVNGHRAAEEAFRSGMSEFDINIAYLTATGHRDTDVPYSNIVALNEHAAVLHYTKLDHQAPEEMRSFLLDAGAEYNGYAADLTRTWSAKSDNDYAQLVKDVNDEQLALIATMKAGVSYVDYHIQFHQRIAKLLRKHQIITDMSEEAMVENDLTGPFMPHGIGHPLGLQVHDVAGFMQDDSGTHLAAPAKYPYLRCTRILQPGMVLTIEPGIYFIESLLAPWREGQFSKHFNWQKIEALKPFGGIRIEDNVVIHENNVENMTRDLKLA
notes: PepQ (Xaa-Pro dipeptidase, prolidase), E. coli, monomer of about 50 kDa; native form is a homodimer; also called prolidase; metalloprotease PepQ; source: E. coli BL21(DE3), purified (anion exchange, ammonium sulfate, Phenyl Sepharose)
Turning to B1, in experiment [1], the “observed folding rate constant of PepQ by recovery of enzymatic activity, bound to SRΔ526 (300 nM) and refolded with GroES (600 nM) and ATP (2 mM)” value came out at 0.332 min⁻¹. Further, the binding result in experiment [2] is on record as “binds”.

B2: PepQ-24F (enzyme, E. coli, UniProt P21165 1-443, looked up)
chain: MESLASLYKNHIATLQERTRDALCRFKLDALLIHSGELFNVFLDDHPYPFKVNPQFKAWVPVTQVPNCWLLVDGVNKPKLWFYLPVDYWHNVEPLPTSFWTEDVEVIALPKADGIGSLLPAARGNIGYIGPVPERALQLGIEASNINPKGVIDYLHYYRSFKTEYELACMREAQKMAVNGHRAAEEAFRSGMSEFDINIAYLTATGHRDTDVPYSNIVALNEHAAVLHYTKLDHQAPEEMRSFLLDAGAEYNGYAADLTRTWSAKSDNDYAQLVKDVNDEQLALIATMKAGVSYVDYHIQFHQRIAKLLRKHQIITDMSEEAMVENDLTGPFMPHGIGHPLGLQVHDVAGFMQDDSGTHLAAPAKYPYLRCTRILQPGMVLTIEPGIYFIESLLAPWREGQFSKHFNWQKIEALKPFGGIRIEDNVVIHENNVENMTRDLKLA
modifications: fluorescein (5-iodoacetamidofluorescein) on the cysteine at position 24
notes: PepQ, E. coli, with the surface-exposed cysteine A24C; also called Fluorescein-labelled PepQ; A24C PepQ labelled with fluorescein; source: E. coli BL21(DE3), purified, labelled and re-purified (PD-10, MonoQ)
Regarding B2, in experiment [3], the binding result is given as “binds”.

B3: PepQ-24TMR (enzyme, E. coli, UniProt P21165 1-443, looked up)
chain: MESLASLYKNHIATLQERTRDALCRFKLDALLIHSGELFNVFLDDHPYPFKVNPQFKAWVPVTQVPNCWLLVDGVNKPKLWFYLPVDYWHNVEPLPTSFWTEDVEVIALPKADGIGSLLPAARGNIGYIGPVPERALQLGIEASNINPKGVIDYLHYYRSFKTEYELACMREAQKMAVNGHRAAEEAFRSGMSEFDINIAYLTATGHRDTDVPYSNIVALNEHAAVLHYTKLDHQAPEEMRSFLLDAGAEYNGYAADLTRTWSAKSDNDYAQLVKDVNDEQLALIATMKAGVSYVDYHIQFHQRIAKLLRKHQIITDMSEEAMVENDLTGPFMPHGIGHPLGLQVHDVAGFMQDDSGTHLAAPAKYPYLRCTRILQPGMVLTIEPGIYFIESLLAPWREGQFSKHFNWQKIEALKPFGGIRIEDNVVIHENNVENMTRDLKLA
modifications: tetramethylrhodamine (tetramethylrhodamine-5-iodoacetamide) on the cysteine at position 24
notes: PepQ, E. coli, with the surface-exposed cysteine A24C in the first helix of the N-terminal domain; also called PepQ-TMR; A24C PepQ labelled with tetramethylrhodamine; source: E. coli BL21(DE3), purified, labelled and re-purified (PD-10, MonoQ)
Take B3: the binding result in experiment [4] is reported as “binds”.
